Reference: patent publication US20220362394A1 (SUTRO BIOPHARMA, published 2022)
Substitutions are numbered along the chain they refer to.

B1: 11D6 (antibody, V domains shown)
VH: AVTLDESGGGLQTPGGTLSLVCKASGFTFSSFNMFWVRQAPGEGLEWVAYIRNDGRSTSYGPAVKGRATISRDNGQSTVRLQLNNLRAEDTGTYFCAKTTCVGSGGCIDTWGHGTEVIVSS
VL: ALTQPSSVSANPGETVEITCSGGNSDYGWFQQKSPGSAPVTVIYRNNQRPSDIPSRFSGSGSGSTNTLTITGVQAEDEAIYYCGNVDFTDDVFGAGTTLTVL
notes: Chicken HybriFree-derived antibody; also called Antibody 32
B2: 2290-D05 (antibody, V domains shown)
VH: EVQLVESGGGLVQPGGSLRLSCAASGFNIASRWIHWVRQAPGKGLEWVGVITPSAGYTYYADSVKGRFTISADTSKNTAYLQMNSLRAEDTAVYYCARDLGYGYWVGFSDYWGQGTLVTVSS
VL: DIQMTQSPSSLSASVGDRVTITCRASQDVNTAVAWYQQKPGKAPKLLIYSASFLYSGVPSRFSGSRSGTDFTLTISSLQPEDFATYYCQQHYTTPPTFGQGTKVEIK
notes: also called Antibody 20
B3: 10F4 (antibody, V domains shown)
VH: AVTLDESGGGLQTPGGALSLVCKASGFTFSGYNMGWVRQAPGKGLEYVAGITYGTGSYTAYGAAVKGRATISRDNGQSTLRLQLNNLRAEDTATYYCARGGGLNSYGCSGANIDAWGHGTEVIVSS
VL: ALTQPSSVSANLGGTVKITCSGGGNYFGSYYYGWYQQKAPGSAPVTVIYNNNNRPSDIPSRFSGSTSGSTSTLTISGVRAEDEAVYFCGGFDSSTDAIFGAGTTLTVL
notes: Chicken HybriFree-derived antibody; also called Antibody 37
B4: 10H1 (antibody, V domains shown)
VH: AVTLDESGGGLQTPGGALSLVCKASGFTFSGYGMGWMRQAPGKGLEYVARINSAGSDTDYGAAVKGRATISRDNGQSTVRLQLNNLRAEDTATYFCTRGGGGASIDGWGHGTEVIVSS
VL: B3 VL with L12P, G14E, F27Y, D57N, T66K, S71G, S76T, R79Q, T95S
notes: Chicken HybriFree-derived antibody; also called Antibody 45
B5: 9A5 (antibody, V domains shown)
VH: AVTLDESGGGLQTPGGAVSLVCKASGFSISDYGMGWMRQAPGKGLQYVARIDHDGRYTDYGAVVKGRATISRDNGQSTVRLQLNNLRAEDTGTYYCTRGGGAASIDTWGHGTEVIVSS
VL: B3 VL with L12P, G14E, F27V, S29G, P44L, V47L, D57N, S76T, G90S
notes: Chicken HybriFree-derived antibody; also called Antibody 42
B6: 9E12 (antibody, V domains shown)
VH: B4 VH with A17G, G31D, M34L, D57G, D59Y, A62S, K65D, A92G, F95Y
VL: B3 VL with L12P, G14E, N25S, F27Y, A39S, V47L, S71G, S76T, F87Y, G90S
notes: Chicken HybriFree-derived antibody; also called Antibody 43
B7: 10E10 (antibody, V domains shown)
VH: AVTLDESGGGLQTPGGGLSLVCKASGFTFSSYGMGWMRQAPGKGLEFVARINSGGSSYTDYGSAVKGRATISRDDGQSTVRLQLNNLRAEDTGIYYCTRGGGGASIDGWGHGTEVIVSS
VL: B3 VL with L12P, G14E, F27A, A39S, V45L, N51S, T66L, S71G, S76T
notes: Chicken HybriFree-derived antibody; also called Antibody 46
B8: 9H1 (antibody, V domains shown)
VH: AVTLDESGGGLQTPGGALSLVCKGSGFTFSDYGMGWMRQAPGKGLQYVARINSAGSDTNYGSAVKGRATISRDDGQSTVRLQLSSLRAEDTGIYYCTRGGGGASIDGWGHGTEVIVSS
VL: B3 VL with L12P, G14E, N25S, F27Y, A39S, V47L, S71G, S76T, F87Y, G90S
notes: Chicken HybriFree-derived antibody; also called Antibody 44
B9: 2291-D07 (antibody, V domains shown)
VH: EVQLVESGGGLVQPGGSLRLSCAASGFNIKDTYIHWVRQAPGKGLEWVGVISPYDGYTEYADSVKGRFTISADTSKNTAYLQMNSLRAEDTAVYYCAHDFYDRYSTYVLDYWGQGTLVTVSS
VL: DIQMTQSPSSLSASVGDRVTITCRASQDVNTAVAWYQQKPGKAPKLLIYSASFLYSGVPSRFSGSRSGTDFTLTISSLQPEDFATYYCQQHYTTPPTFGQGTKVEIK
notes: also called Antibody 26
B10: 2291-F10 (antibody, V domains shown)
VH: B9 VH with K30D, D31P, T32Y, Y33T, V50W, H98R, F100Y, Q114R
VL: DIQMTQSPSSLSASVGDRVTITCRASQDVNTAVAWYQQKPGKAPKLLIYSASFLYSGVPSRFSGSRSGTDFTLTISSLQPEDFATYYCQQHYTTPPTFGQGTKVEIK
notes: also called Antibody 27
B11: 2291-A01 (antibody, V domains shown)
VH: B9 VH with K30D, D31P, T32Y, Y33T, V37A, G49A, V50H, E59D, H98R
VL: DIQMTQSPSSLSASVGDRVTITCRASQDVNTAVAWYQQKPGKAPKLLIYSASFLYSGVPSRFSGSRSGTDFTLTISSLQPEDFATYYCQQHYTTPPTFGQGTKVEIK
notes: also called Antibody 29
B12: 2291-G05 (antibody, V domains shown)
VH: B9 VH with K30A, D31A, T32Y, Y33T, V50W, D55G, H98R, Y101H, S105A, Y107F
VL: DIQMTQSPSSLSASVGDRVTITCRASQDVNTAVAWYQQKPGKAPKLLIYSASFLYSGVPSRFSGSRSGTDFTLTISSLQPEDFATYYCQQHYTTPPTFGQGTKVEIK
notes: also called Antibody 24
B13: 2190-B01 (antibody, V domains shown)
VH: B2 VH with A30S, R32Y, A55G, Y102G, S109F
VL: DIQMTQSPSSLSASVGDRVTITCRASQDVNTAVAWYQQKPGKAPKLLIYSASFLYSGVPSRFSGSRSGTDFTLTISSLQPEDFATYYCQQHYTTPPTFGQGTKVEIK
notes: also called Antibody 16

molecular target: T1, human BCMA on cells (human, UniProt Q02223 1-184); assay: FACS, NCI-H929 cells
T1 construct: also called hBCMA; BCMA on NCI-H929, ARP-1, OPM-2, U266B1, MM.1S, RPMI-8226 cells
T1 sequence: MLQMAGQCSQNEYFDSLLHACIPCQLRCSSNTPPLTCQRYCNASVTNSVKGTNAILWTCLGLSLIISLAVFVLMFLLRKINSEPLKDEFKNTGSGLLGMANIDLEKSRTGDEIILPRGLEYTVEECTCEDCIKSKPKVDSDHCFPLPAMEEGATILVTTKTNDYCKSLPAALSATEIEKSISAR
Protocol: (§1) Variants for which sufficient protein was purified in secondary screening were tested in a fluorescence-activated cell sorting (FACS) cell-binding assay. […] 6-12 point dilutions of anti-BCMA variants starting from concentrations of about 100-200 nM antibody were dispensed into each well using a BioMekFX (Beckman Coulter). Cells were then incubated on ice for 1 hr, washed with FACS buffer and incubated for 1 hr on ice with […] FACS buffer containing 2.5 μg/ml Alexa647-conjugated Goat Anti-Human IgG dispensed using BioMekFX (Beckman Coulter). Cells were then washed 2× with FACS buffer and fixed for 10 minutes in […] PBS with 2% paraformaldehyde (PFA) prior to fluorescence detection. Samples were acquired using a Beckton Dickinson LSRII FACS. Geometric Mean Fluorescence Intensity of BCMA antibody binding was analyzed using FlowJo® software (Tree Star, Inc.).

Binder | Bmax [MFI] | Kd [pM]
B1 | 26400 | 47600
B2 | 21800 | 4600
B3 | 18700 | 10500
B4 | 22500 | 360
B5 | 19700 | 1010
B6 | 8140 | 520
B7 | 3440 | 4670
B8 | 6160 | 1000
B9 | 28700 | 3800
B10 | 33800 | 5400
B11 | 32500 | 4900
B12 | 23200 | 1400

molecular target: T2, human BCMA-Fc (human, UniProt Q02223 1-54); assay: ELISA, coated huBCMA-Fc
T2 construct: Bought from R&D Systems; also called huBCMA-Fc; not shown: Fc part not described
T2 sequence: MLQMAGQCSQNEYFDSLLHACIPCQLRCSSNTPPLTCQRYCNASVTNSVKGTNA

Binder | Bmax | EC50 [pM]
B13 | 3.68e+06 | 300
B2 | 3.94e+06 | 300
B9 | 4.08e+06 | 30
B10 | 3.72e+06 | 100
B11 | 5e+06 | 390
B12 | 3.91e+06 | 130

molecular target: T3, rat BCMA on cells (rat); assay: FACS, 293T-ratBCMA cells
T3 construct: whole, on cells

Binder | Bmax [MFI] | Kd [pM]
B3 | 410 | 5470
B4 | 4350 | 390
B5 | 2780 | 7130
B6 | 4690 | 2610
B7 | 906 | 6830
B8 | 3450 | 1320

molecular target: T4, cynomolgus BCMA on cells (cynomolgus monkey, UniProt Q02223 1-184 (human entry)); assay: FACS, 293T-cynoBCMA cells
T4 sequence (Q02223 other isoform, or with tags, fused parts or gaps): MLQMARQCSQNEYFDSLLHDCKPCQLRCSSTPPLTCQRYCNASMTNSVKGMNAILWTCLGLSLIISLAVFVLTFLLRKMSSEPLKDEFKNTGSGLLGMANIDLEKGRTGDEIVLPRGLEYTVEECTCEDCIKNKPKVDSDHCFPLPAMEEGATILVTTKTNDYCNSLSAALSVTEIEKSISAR
Protocol: as §1

Binder | Bmax [MFI] | Kd [pM]
B1 | 27700 | 12200
B2 | 57600 | 1700
B3 | 12800 | 5940
B4 | 21200 | 250
B5 | 18200 | 640
B6 | 13200 | 340
B7 | 4540 | 18900
B8 | 11400 | 390
B9 | 67900 | 500
B10 | 66500 | 700
B11 | 67200 | 1000
B12 | 62700 | 1000

molecular target: T5, cyno BCMA-Fc (cynomolgus monkey, UniProt Q02223 1-54 (human entry)); assay: ELISA, coated cynoBCMA-Fc
T5 construct: Custom protein production; also called cynomolgus BCMA-Fc; not shown: Fc part not described

Binder | Bmax | EC50 [pM]
B13 | 2.15e+06 | 19300
B2 | 3.61e+06 | 200
B9 | 3.94e+06 | 30
B10 | 3.43e+06 | 60
B11 | 4.77e+06 | 330
B12 | 3.38e+06 | 90

molecular target: T2, human BCMA-Fc; assay: SPR Biacore, human BCMA-Fc kinetics
Protocol: (§2) Anti-Fab or anti-Fc polyclonal antibodies were immobilized onto a CM5 chip (GE Life Sciences) using amine coupling chemistry (from Amine Coupling Kit, GE Life Sciences). The immobilization steps were carried out at a flow rate of 25 μL/min in 1×HBS-EP+ buffer (GE Life Sciences; 10× Stock diluted before use). The sensor surfaces were activated for 7 min with a mixture of NHS (0.05 M) and EDC (0.2 M). The anti-Fab or anti-Fc antibodies were injected over all 4 flow cells at a concentration of 25 μg/ml in 10 mM sodium acetate, pH 4.5, for 7 min. Ethanolamine (1 M, pH 8.5) was injected for 7 min to block any remaining activated groups.
(§3) Off-rate and kinetic binding experiments were performed at 25° C. using 1×HBS-EP+ buffer. […] After capturing ligand (antibody) on the anti-Fab or anti-Fc surface, the analyte (human BCMA-Fc, cyno BCMA-Fc, or human BCMA from R&D Systems, custom protein production, or Sigma Aldrich, respectively) was bound for 180 seconds, followed by a 600 second dissociation phase at a flow rate of 50 μL/min. Between each ligand capture and analyte binding cycle, regeneration was carried out using 2 injections of 10 mM glycine pH 2.0 for 30 seconds at 30 μL/min, followed by a 30 second buffer wash step.
(§4) The data was fit with the Biacore T200 Evaluation software, using a 1-1 Langmuir binding model. KD (affinity, nM) was determined as a ratio of the kinetic rate constants calculated from the fits of the association and dissociation phases.

Binder | Kd [pM] | koff [s⁻¹] | kon [M⁻¹ s⁻¹]
B1 | 313 | 0.000318 | 1.02e+06
B4 | 2920 | 17.9 | 6.14e+09

molecular target: T2, human BCMA-Fc; assay: SPR Biacore, antibody captured, 25 C
Protocol: as §2, §3, §4

Binder | Kd [pM] | koff [s⁻¹] | kon [M⁻¹ s⁻¹]
B13 | 5230 | 0.000712 | 136000
B2 | 937 | 0.000446 | 476000
B9 | 948 | 0.000414 | 437000
B10 | 178 | 9.65e-05 | 541000
B11 | 43.8 | 2.82e-05 | 644000
B12 | 962 | 0.000423 | 440000

molecular target: T4, cynomolgus BCMA on cells; assay: FACS, 293T-cynoBCMA cells; NSB = non-saturating binding

Binder | binding result
B13 | binds
